B1: ULBP1 (UL16 binding protein 1), recombinant (ligand)
chain: GWVDTHCLCYDFIITPKSRPEPQWCEVQGLVDERPFLHYDCVNHKAKAFASLGKKVNVTKTWEEQTETLRDVVDFLKGQLLDIQVENLIPIEPLTLQARMSCEHEAHGHGRGSWQFLFNGQKFLLFDSNNRKWTALHPGAKKMTEKWEKNRDVTMFFQKISLGDCKMWLEEFLMYWEQMLDPTKPPSLAPG
B2: ULBP2 (UL16 binding protein 2), recombinant (ligand)
chain: GRADPHSLCYDITVIPKFRPGPRWCAVQGQVDEKTFLHYDCGNKTVTPVSPLGKKLNVTTAWKAQNPVLREVVDILTEQLRDIQLENYTPKEPLTLQARMSCEQKAEGHSSGSWQFSFDGQIFLLFDSEKRMWTTVHPGARKMKEKWENDKVVAMSFHYFSMGDCIGWLEDFLMGMDSTLEPSAGAPLAMSS
B3: ULBP3 (UL16 binding protein 3), recombinant (ligand)
chain: DAHSLWYNFTIIHLPRHGQQWCEVQSQVDQKNFLSYDCGSDKVLSMGHLEEQLYATDAWGKQLEMLREVGQRLRLELADTELEDFTPSGPLTLQVRMSCECEADGYIRGSWQFSFDGRKFLLFDSNNRKWTVVHAGARRMKEKWEKDSGLTTFFKMVSMRDCKSWLRDFLMHRKKRLEPTAPPTMAPG

Biological target: NKG2D-based chimeric antigen receptor of CYAD-01 cells (full length human NKG2D fused to the CD3zeta signalling domain) (UniProt P26718)

Row | Molecule | cytokine secretion by CYAD-01 cells cultured with plate-bound ligand [µg/mL]
1 | MICB (major histocompatibility complex class I chain-related B), recombinant (from UniProt Q29980 23-383) (ligand) | > 0.25
2 | MICA (major histocompatibility complex class I chain-related A), recombinant (from UniProt Q29983 24-383) (ligand) | > 0.25
3 | B1 | > 5
4 | B2 | > 5
5 | B3 | > 5

From paper PMC6220480
